According to US20200347130A1 (JIANGSU HENGRUI MEDICINE, published 2020):

Assays:
[1] = target: T1, CD96 extracellular region with His tag (CD96-His) (human, UniProt P40200 22-519); assay: blocking cell ELISA: antibody premixed with Bio-CD96-His (0.5 ug/mL), binding to fixed CD155-CHO cells
T1 construct: also called CD96-ECD-His; Bio-CD96-His (biotin-labelled form)
T1 sequence: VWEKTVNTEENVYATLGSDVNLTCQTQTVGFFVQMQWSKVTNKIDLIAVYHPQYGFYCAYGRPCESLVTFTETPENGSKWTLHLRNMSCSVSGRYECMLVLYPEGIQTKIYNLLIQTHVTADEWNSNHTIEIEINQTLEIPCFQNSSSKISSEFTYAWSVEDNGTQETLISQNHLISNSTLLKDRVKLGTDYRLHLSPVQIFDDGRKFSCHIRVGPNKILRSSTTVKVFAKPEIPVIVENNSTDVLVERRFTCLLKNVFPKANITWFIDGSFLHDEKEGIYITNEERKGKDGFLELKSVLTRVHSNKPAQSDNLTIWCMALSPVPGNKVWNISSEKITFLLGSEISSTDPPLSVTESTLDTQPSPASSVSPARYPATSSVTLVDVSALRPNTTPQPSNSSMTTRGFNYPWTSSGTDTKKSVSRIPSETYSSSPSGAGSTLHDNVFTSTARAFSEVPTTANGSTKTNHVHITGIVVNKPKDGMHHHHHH
Protocol: CD155-CHO cells (constructed by Shanghai Hengrui) were seeded in 96-well culture plates at a density of 9×10⁴/100 μL/well and cultured overnight. After aspirating the supernatant, the plate was washed once with PBS, 100 μl/well of immunostaining fixation solution (Biyuntian, Cat No. P0098) was added and fixed for one hour at room temperature, and the plate was washed three times with PBS. After discarding the liquid, 250 μl/well of 5% skim milk (BD, Cat No. 232100) blocking solution diluted with PBS was added, and the plate was blocked in an incubator at 37° C. for 2.5 hours. After blocking, the blocking solution was discarded, subsequently, the plate was washed 4 times with PBST buffer (pH 7.4 PBS containing 0.05% tween-20). 50 μl/well of antigen-antibody pre-incubation solution (gradient concentrations of the hybridoma antibody to be tested and CD96-Fc at a final concentration of 0.5 μg/mL were premixed at 37° C. for 30 minutes, or gradient concentrations of humanized antibody samples and Bio-CD96-His at a final concentration of 0.5 μg/mL were premixed at 37° C. for 30 minutes) (Biotin-labeled kit, Dongren Chemical, Cat No. LK03) was added, and the plate was incubated in an incubator at 37° C. for 2 hours. After incubation, the reaction solution in the microtiter plate was discarded, the plate was washed 4 times with PBST, and 50 μl/well of HRP-labeled goat anti-human secondary antibody (Jackson Immuno Research, Cat No. 109-035-003) diluted with sample dilution or HRP-labeled streptavidin diluted with sample dilution (Sigma, Cat No. 52438) was added, followed by incubating at 37° C. for 1 hour. After washing the plate 4 times with PBST, 50 μl/well of TMB chromogenic substrate (KPL, Cat No. 52-00-03) was added, the plate was incubated at room temperature for 10-20 minutes, followed by adding 50 μl/well of 1M H₂SO₄ to stop the reaction. The absorption value was read at 450 nm with a NOVOStar microplate reader, and the EC50 value of the effect of CD96 antibody on blocking the binding between the antigens and CD155-CHO cells was calculated (see FIG. 2 and Table 16).

[2] = target: T2, Full-length human CD96 on CHO-S cells (human, UniProt P40200 22-585); assay: cell ELISA, fixed CD96-overexpressing CHO-S cells
T2 construct: also called CD96-CHOs; hCD96-CHOs
T2 sequence: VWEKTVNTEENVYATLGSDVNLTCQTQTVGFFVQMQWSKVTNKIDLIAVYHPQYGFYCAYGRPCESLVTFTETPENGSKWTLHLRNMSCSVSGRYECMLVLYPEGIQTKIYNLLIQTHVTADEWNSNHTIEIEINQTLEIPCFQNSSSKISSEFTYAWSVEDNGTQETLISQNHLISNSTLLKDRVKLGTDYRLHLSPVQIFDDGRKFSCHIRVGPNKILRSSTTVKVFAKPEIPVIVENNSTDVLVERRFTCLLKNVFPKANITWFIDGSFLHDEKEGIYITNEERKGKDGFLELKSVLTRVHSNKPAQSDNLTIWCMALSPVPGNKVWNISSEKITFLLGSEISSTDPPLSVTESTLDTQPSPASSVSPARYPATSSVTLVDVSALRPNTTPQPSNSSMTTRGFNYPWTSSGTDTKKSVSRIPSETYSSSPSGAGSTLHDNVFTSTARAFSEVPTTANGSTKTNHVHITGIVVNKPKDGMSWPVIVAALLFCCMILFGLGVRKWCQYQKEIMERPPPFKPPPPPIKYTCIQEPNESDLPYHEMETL
Protocol: The binding capacity of the anti-CD96 antibody was tested by binding experiments of the antibody to human CD96 protein overexpressing CHO-S cells. The full-length CD96 plasmid was transfected into CHO-S cells by electrotransfection, and cells were then screened for two weeks under pressure for the detection of the expression of CD96. After the over-expressing cells were fixed at the bottom of the 96-well plate, the density of the signal after adding the antibody was used to judge the binding activity of the antibody to CD96 overexpressing CHO-S cells. The specific experimental method is as follows:
The cells were seeded at a density of 9×10⁴/100 μL/well in a 96-well plate and cultured overnight. After aspirating the supernatant, the plate was washed once with PBS, subsequently, 100 μl/well immunostaining fixation solution (Biyuntian, P0098) was added and fixed for one hour at room temperature, and the plate was washed three times with PBS. Once the liquid was discarded, 250 μl/well of 5% skim milk (BD, 232100) blocking solution diluted with PBS was added, and the plate was blocked in an incubator at 37° C. for 2.5 hours. After blocking, the blocking solution was discarded, the plate was washed 4 times with PBST buffer (pH 7.4 PBS containing 0.05% tween-20), followed by diluting 50 μl/well of different concentrations of the antibodies (hybridoma purification antibody or humanized antibody) to be tested the plate was incubated in an incubator at 37° C. for 2 hours. After incubation, the plate was wash 4 times with PBST. […] After washing the plate 4 times with PBST, 50 μl/well of TMB chromogenic substrate (KPL, Cat No. 52-00-03) was added, the plate was incubated at room temperature for 10-25 min, followed by adding 50 μl/well of 1M H₂SO₄ to stop the reaction. The absorption value was read at 450 nm with a NOVOStar microplate reader, and the EC50 value of the CD96 antibodies to CD96 overexpressing CHO-S cells was calculated (see FIG. 1 and Table 15).

[3] = target: T1, CD96 extracellular region with His tag …; assay: ELISA, CD96-His coated
Protocol: The binding capacity of the anti-CD96 antibody was tested by ELISA to determine the binding of the antibody to human CD96 protein. The His-tagged CD96 fusion protein was used to coat the microtiter plate, and the intensity of the signal after adding with the antibody was used for evaluating the binding activity of the antibody and CD96. The specific experimental method is as follows:
CD96-His with the sequence of SEQ ID NO: 4 prepared in Embodiment 1 was diluted to a concentration of 2 μg/ml with PBS buffer (Shanghai Yuanpei Biotechnology Co., Ltd. Cat No. B320), pH 7.4, added to a 96-well microtiter plate (Corning, Cat No. CLS3590-100EA) at a volume of 50 μl/well, and placed in an incubator at 37° C. for 2 hours. After discarding the liquid, 250 μl/well of 5% skim milk (BD, Cat No. 232100) blocking solution diluted with PBS was added, and the plate was incubated at 37° C. for 2.5 hours or at 4° C. overnight (16-18 hours) for blocking. After blocking, the blocking solution was discarded, and the plate was washed 4 times with PBST buffer (pH 7.4 PBS containing 0.05% tween-20). 50 μl/well of different concentrations of the antibodies to be tested (hybridoma purification antibody or humanized antibody) diluted with sample dilution was added, and the plate was incubated in an incubator at 37° C. for 1 hour. […] After washing the plate 4 times with PBST, 50 μl/well of TMB chromogenic substrate (KPL, Cat No. 52-00-03) was added, and the plate was incubated at room temperature for 5-15 minutes, followed by adding 50 μl/well of 1M H₂SO₄ to stop the reaction. The absorption value was read at 450 nm with a NOVOStar microplate reader, and the EC50 value of the binding of CD96 antibody to human CD96 was calculated (see Table 13).

B1: h1719-003 (antibody, V domains shown)
VH: EVTLKESGPVLVKPTETLTLTCTVSGFSLSSYGVSWVRQPPGKGLEWLGVIWGDGNTNYHSVLISRLTISKDTSKSQVVLTLTNMDPVDTATYYCAKNNYYGSRYGYPMDYWGQGTTVTVSS
VL: DIQMTQSPSSVSASVGDRVTITCKATQDVGTAVAWYQQKPGKAPKLLIYWASTRHTGVPSRFSGSGSGTDFTLTISSLQPEDFATYYCQQYGSSVLTFGGGTKVEIK
notes: also called M719-003
- IC50 [1]: 0.096 nM
- EC50 [2]: 0.028 nM
- EC50 [3]: 0.085 nM
